Assay: yeast display, Sf9 membrane polyspecificity reagent, FACS + sequencing; frameworks hold sequencing errors
Summary of the method: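 Polyreactivity labels are assigned by the sorting gate from which each nanobody was recovered. The gates were low and high (top ~1%), set on anti-HA fluorescence for expression and streptavidin fluorescence for reagent binding. Before sorting, galactose-induced (36–48 hours) yeast display cells were stained for 1 hour at 4 °C with 10% biotinylated, detergent-solubilized Sf9 membrane reagent.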

Row | Sequence | polyreactivity (PSR sort gate)
1 | QVQLVESGGGLVQAGGSLRLSCAASGRIYYRNAMGWYRQAPGKERELVAAISWRGGTTYYADSVKGRFTISRDNAKNSVYLQMNSLKPEYTAVYYCAADRRKAQAKPVHYSWGPQRYGYGYWGQGTQVTVSS | high polyreactivity
2 | QVQLVESGGGLVQAGGSLRLSCAASGRIYYSNDMRWYRQAPGKERELVAAISRRDGSTYYADSVKGRFTISRDNAKNTVYLQMNSLKPEDTAVYYCRYYSYRYGYWGQGTQVTVSS | high polyreactivity
3 | QVQLVESGGGLVQAGGSLRLSCAASGRKFNGYDMGWYRQAPGKERELVAPINNSGGTDNTYYADSVKGRFTISRDNAKNTVYLQMNSLKPEDTAVYYCNAGPVWDQWWLYYYWGQGTQVTVSS | high polyreactivity
4 | QVQLVESGGGLVQAGGSLRLSCAASGRLFIIYAMGWYRQAPGKERELVAAINRGATTNYADSVKGRFTISRDNAKYTVYLQMNSLKPEDTAVYYCAARGVAKLRRVGYWGQGTQVTVSS | high polyreactivity
5 | QVQLVESGGGLVQAGGSLRLSCAASGRLFTGNAMGWYRQAPGKERELVADINRTGGSPYYADSVKGRFTISRDNAKNTVYVQLNSLKPVDTAVYDCAAYVPWGWRYGYNYWGQGTQVTVSS | high polyreactivity
6 | QVQLVESGGGLVQAGGSLRLSCAASGRLFVYNAMGWYRQAPGKEREFVATITSSGGRTYYADSVKGRFTISRDNAKNTVYLQMNSLKPEDSAVYYCAARPQNNGRNPVYRYNYWGQGTQVTVSS | high polyreactivity
7 | QVQLVESGGGLVQAGGSLRLSCAASGRLFVYNAMGWYRQAPGKERELVASISWSGDSTYADSVKGRFTISRDNAKNTVYIQMNSLKPEDTAVYYCAAYSQADYQNMDYWGQGTQVTVSS | low polyreactivity
8 | QVQLVESGGGLVQAGGSLRLSCAASGRLFYQYAMGWSRQAPGKERELVAAISRSGGSTSYADSVKGRFTISRDNAKNTVYLQMNSLKPEDTAVYYCNARRWWDFQGYDYWGQGTQVTVSS | high polyreactivity
9 | QVQLVESGGGLVQAGGSLRLSCAASGRLMGWYRQAPGKERELVAAIRVSSGSTYYADSVKGRFTISRDNAKNTVYLQMNSLKPEDTAVYYCAKYVYLGYVRQVPYFRYDYWGQGTQVTVSS | high polyreactivity
10 | QVQLVESGGGLVQAGGSLRLSCAASGRLSVFYTMGWYRQAPGKERELVAVSRTSGGRTNYADSVKGRFTISRDNAKNTVYIEMNCLKPEDSGDYYGNAEFTYRWGYWQVYLLDYWGQGTQVTVSS | low polyreactivity
11 | QVQLVESGGGLVQAGGSLRLSCAASGRMFFRYAMGCYRQAPGKEREFVATITWSGGRTHYADSVKGRFTISRDNAKNTVYLQMNSLKPEDTAVYYCAASYHRYAFDYWGQGTQVTVSS | high polyreactivity
12 | QVQLVESGGGLVQAGGSLRLSCAASGRMFKYSDMGWYRQAPGKERALVAGISISGSTSYADSVKGRFTISRDNAKNTVYLQMNSLKPEDTAVYYCAADSRGGYPSLYEYDYWGQGTQETVSS | low polyreactivity
13 | QVQLVESGGGLVQAGGSLRLSCAASGRMFTYYAMGGYRQAPGKERELVAAINRGVVTTYYADSVKGRFTISRDHAKNTVDLQMNSLKPEDTAVYYCAADWFAANYYVNPVSALDYWGQGTQVTVSS | low polyreactivity
14 | QVQLVESGGGLVQAGGSLRLSCAASGRMGWYRQAPGKERELVAGITSSGRTYYADSVKGRFTISRDNAKNTVYLQMNSLKPEDTAVYYCATYGYWGQGTQVTVSS | high polyreactivity
15 | QVQLVESGGGLVQAGGSLRLSCAASGRNFALNAMGWYRQAPGKERELLATIRWRGGSTYYADSVKGRFTISRDNAKKTVYLQMNSLKPEDTAVYYCATGPRPYPYDYCGQGTQVTVSS | high polyreactivity
16 | QVQLVESGGGLVQAGGSLRLSCAASGRNFCNYAMGWYIQAPGKERELVAVIRFSDGSTYYADSVKGRFTISRDNAKNTVYLQMNSLKPEDTAVYYCAAKGPRRWGSGFDYWGQGTQVTVSS | low polyreactivity
17 | QVQLVESGGGLVQAGGSLRLSCAASGRNFDPYAMGWYRQAPGKERELVASISRGGSTYADSVKGRFTISRDNAKNTVYLQMNRLKPEVTAVYYCNTSLYTEGDAMDYWGQGTQVTVSS | low polyreactivity
18 | QVQLVESGGGLVQAGGSLRLSCAASGRNFGVYAMGWYRQAPGKERELVARIRGSGASTYYADSVKGRFTISRDNAKNTVYLQMNSLKPEDTAVYYCAAVTVAGYDYWGQGTQVTVSS | high polyreactivity
19 | QVQLVESGGGLVQAGGSLRLSCAASGRNFILNAMGWYRQAPGKERELVAAISWSGGSTYYADSVKGRFTISRDNAKNTVYLQMNSLKPEDTAVYYCAAETYAYLFHTYDYWGQGTQVTVSS | low polyreactivity
20 | QVQLVESGGGLVQAGGSLRLSCAASGRNFLIYAMGWYRQAPRKERELVADISTSGGTTYYADSVKGRFTISRDNAKNTVYLQMNSLKPADTAVYYCAAGSHYWKYYSWGQGTQVTVSS | high polyreactivity
21 | QVQLVESGGGLVQAGGSLRLSCAASGRNFLYNAMGWYRQAPGKERELVAVISKRGGRTYYADSVKGRFTISRDNAKNTVYLQMNSLKPEDTAVYYCAAAYVTPPGPLRYNEYYWGQGTQVTVSS | high polyreactivity

Row | Sequence | polyreactivity (PSR sort gate)
22 | QVQLVESGGGLVQAGGSLRLSCAASGRNFRWYAMGWYRQAPGKERELVAAITRGDITNYADSVKGRFTISRDNAKKTVYLQMNSLKPEDTAVYYCNAQWYDIYDYWGQGTQVTVSS | high polyreactivity
23 | QVQLVESGGGLVQAGGSLRLSCAASGRNFSSYAMGWYIQAPGKERELVAAITSGGRTKYADSVKGRFTISRDNAKNTVYLQMNSLKPEDTAVYYCAARNHWVRYLRYDYWGQGTQVTVSS | high polyreactivity
24 | QVQLVESGGGLVQAGGSLRLSCAASGRNFSYYAMGWYRQAPGKERELVAFISSGGNTYYADSVKGRFTISRDNAKNTVYLPMNSLKPEDTAVYYSGADPNAQGYPQVNYWGQGTQVTVSS | high polyreactivity
25 | QVQLVESGGGLVQAGGSLRLSCAASGRNFTSNAMGWYRQAPGKERELVAAITQSGGSTYYADSVKGRFTISRDNAKNTVYLQMNSLKPVDTAVYYCNAETTGRTEYNYWGQGTQVTVSS | low polyreactivity
26 | QVQLVESGGGLVQAGGSLRLSCAASGRNFYGYTMGWYRQAPGKERELVAAITSGGSTYYADSVKGRFTISRDNAKNTVYLQMNSLKPEDTAVYYCNAKYNGYYRRFSEYDYWGQGTQVTVSS | high polyreactivity
27 | QVQLVESGGGLVQAGGSLRLSCAASGRNFYHYAMGWYRQAPGKEREFVAAISVSGGRTYYADSVKGRFTISRDNAKNTVYLQMNSLKPEDTAVYYCAAEPEWPYGRFDYWGQGTQVTVSS | high polyreactivity
28 | QVQLVESGGGLVQAGGSLRLSCAASGRNFYYYAMGWYRQAPGKEREFVARNRSSGGSTYADSVKGRFTISRDNAKNTVYLQMNSLKPEDTAVYYCARDGYTAVEYDYWGQGTQVTVSS | low polyreactivity
29 | QVQLVESGGGLVQAGGSLRLSCAASGRNIYTNAMGWYRQAPGKERELVAAINRSGGITYYADSVKGRFTISRDNAKNTVDLQMNSLKPEDTAVYYCAKDYSWASYNHDYWGQGTQVTVSS | low polyreactivity
30 | QVQLVESGGGLVQAGGSLRLSCAASGRNLPSYAMGWYRQAPGKERELVAAISGSGGRTYYSDSVKGRFTISRDNAKNTVYLQMNSLKQEDTAVYYCAARQDDYGKINYYWGQGTQVTVSS | high polyreactivity
31 | QVQLVESGGGLVQAGGSLRLSCAASGRNSPSYAMGWYRQAPGKERELVAAISKRGGTTYYADSVKGRFTISRDNAKNTVYLQMNSLKPEDTAVYYCSARDYSHPTDDNYWGQRTQVTVSS | high polyreactivity
32 | QVQLVESGGGLVQAGGSLRLSCAASGRNYVYNAMGRYRQAPGKETELVAAITSSGGSTYYADSVKGRFTISRDNAKNSVDLQMNSLKPEDTAVYYCAADVQPDTRSTPEMDYWGQGTQVTVSS | low polyreactivity
33 | QVQLVESGGGLVQAGGSLRLSCAASGRPFISYAMGWYRQAPGKERELVAAISSSGGSTYYADSVKGRFTMSRDTAKNTVYLQMNSLKPEDTAVYYCNAAKVRRDPAWRLLDYWGQGTQVTVSS | low polyreactivity
34 | QVQLVESGGGLVQAGGSLRLSCAASGRPFKRYAMGWYRQAPGKEREVVAAITASGGNTYYADSVKGRFTISRDNAKNTVYLQMNSLKPEDTAVYYCARGSYSGGSKYNYWGQGTQVTVSS | high polyreactivity
35 | QVQLVESGGGLVQAGGSLRLSCAASGRPFPFNAMGWSRQAPGKDRELVAAISGRGGSTYYADSVKGRFTISRDNATNTGSLQRNSQKPEDTAVDYCAARLPWSYYRTQGYNSWGQGTQGTVSS | high polyreactivity
36 | QVQLVESGGGLVQAGGSLRLSCAASGRPFPGNAMGWYRPAPGKERELVAAISSSGGSTHYADSGKGRFTISRDTAKNTVYLQMNSLKPEDTAVYYCNARSIGYSYRYYDWGQGTQVTVSS | high polyreactivity
37 | QVQLVESGGGLVQAGGSLRLSCAASGRPFRGNAMGWYRQAPGKERQLVAAITGTGGSTYYADSVKGRFTISRDNAKNTVYLQMNSVKPEDTAVYYCAAVLRGHNGLNFEYWGQGTQVTVSS | high polyreactivity
38 | QVQLVESGGGLVQAGGSLRLSCAASGRPFYVYAMGWYRQAPGKERELVASIRRSGGITYYADSVKGRFTISRDNAKNTVYLQMNSLKPEDTAVYYCNARRGPGRREYDYWGQGTQVTVSS | high polyreactivity
39 | QVQLVESGGGLVQAGGSLRLSCAASGRRFVKYAMGWYRQAPGKERELVAAITKSGSSTYYSDSVKGRFTISRDNAKNTVYLQMNSLKPEDTAVYYCAALTISRSRTGYYWGQGTQVTVSS | low polyreactivity
40 | QVQLVESGGGLVQAGGSLRLSCAASGRSFAWYTMGWYRQAPGKERELVAAISGSGGSTYYADSVKGRFTISRDNAKNTVYLQMNSLKPEDSALYYGARRVDSYYGHTRFYYWGQGTQVTVSS | high polyreactivity
41 | QVQLVESGGGLVQAGGSLRLSCAASGRSFGTYAMGWYRQAPGKERELVAAISRSGGRTYYADSVKGRFTISRDNAKNTVYLQMNSLKPEDTAVYYCAAATGSVPPYDYWGQGTQVTVSS | high polyreactivity
